A word on the Ki: it is the dissociation constant of the complex between target and ligand, obtained from inhibition or displacement. The low end stands for a stronger hold on the target, the high end for a looser hold on the target.

The experiment concerns the target human galanin receptor GalR1 (human) (UniProt P47211). Put plainly: competition with 5x10^-11M [125I]galanin on membranes of Cos1 cells transfected with GalR1; Cheng-Prusoff.
Chain of UniProt P47211 (P47211 other isoform, or with tags, fused parts or gaps): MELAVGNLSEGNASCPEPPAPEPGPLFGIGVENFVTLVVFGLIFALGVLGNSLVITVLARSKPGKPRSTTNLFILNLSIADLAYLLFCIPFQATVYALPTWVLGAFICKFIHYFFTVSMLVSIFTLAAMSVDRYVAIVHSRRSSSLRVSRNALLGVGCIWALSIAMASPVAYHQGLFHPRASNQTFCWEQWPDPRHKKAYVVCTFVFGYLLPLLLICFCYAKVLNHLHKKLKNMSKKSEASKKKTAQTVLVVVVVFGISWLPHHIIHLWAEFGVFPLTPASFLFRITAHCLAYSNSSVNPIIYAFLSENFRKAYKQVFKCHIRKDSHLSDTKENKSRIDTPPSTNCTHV

In turn, galanin 2-29 (peptide) gave a Ki of 115 nM.

The values are drawn from patent publication US6447996.
